Assay results reported in the supplement of paper PMC12042874.
± gives the uncertainty stated by the source.

Assay: amyloid nucleation score (Sup35N fusion, yeast selection) (log enrichment); library NNK1; higher = more nucleation; inactive = no reads after selection
Summary of the method: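 In psi-negative yeast, Sup35N fusions carrying peptides of 20 random codons were induced with 100 μM copper sulfate for 24 hours. The cells then grew 7 days at 30°C on medium lacking adenine and uracil, and plasmid inserts from input and output were Illumina-sequenced, excluding sequences with under 100 input reads. Nucleation score is the DiMSum log enrichment of output over input reads, centred on the mode score of non-aggregating sequences.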

Row | Substance | amyloid nucleation score
1 | GEKWMLEVASFICKSGFRVC | -0.535 ± 1.7
2 | GELCMLSVW | 0.729 ± 0.79
3 | GESKHKQSNECTQCC | 1.11 ± 0.37
4 | GEVFFLVRSSVVCWISLICA | -0.109 ± 0.39
5 | GFELEAIKEYFGCWPSHYRF | inactive
6 | GFELVNVVGVIASLYNIIIV | 2.92 ± 0.2
7 | GFFHGHIGLQHMCELQCCSG | inactive
8 | GFFYEWRVYCPAWINALWWH | 0.193 ± 0.77
9 | GFGPDQFITESDSFTSAFVS | 0.125 ± 0.55
10 | GFGPS | -0.275 ± 0.38
11 | GFGSELRYYYMSRGMYRIRP | 0.089 ± 0.88
12 | GFHSQG | -0.172 ± 0.41
13 | GFLICVFLSLVGYFGTCLRT | -0.554 ± 0.97
14 | GFLLGFCYPPQVQLVHVLTR | inactive
15 | GFNLAW | -0.547 ± 0.56
16 | GFRSCRCVQGRANVFPYSMS | -0.103 ± 0.25
17 | GFTGFNRIGVLVGWKCN | 0.763 ± 0.92
18 | GFTMSTEGVS | 0.781 ± 0.55
19 | GFWVWSSSRRCLIVRFQVMG | -0.373 ± 0.56
20 | GFYRGVTTIFCSVFI | 7.777 ± 0.07
21 | GGGVMASDKPCTRVSLINKM | 0.161 ± 0.7
22 | GGHFWWNTGQARVNWTIRLE | 0.123 ± 0.48

Row | Substance | amyloid nucleation score
23 | GGILPLTCSFVRTSIDQIGG | -0.154 ± 0.41
24 | GGIYSLSMNIVWATGCL | -0.361 ± 0.93
25 | GGLAGTTLKLRICF | -1.03 ± 1.9
26 | GGLDSNRQLVKFYTSWNYNC | -0.057 ± 0.39
27 | GGLWYTSTYSIYG | 2.42 ± 0.48
28 | GGTNAGRCMYGGRDI | 0.754 ± 0.7
29 | GGTWPYTAVRWVIWRLWGEG | 0.129 ± 0.64
30 | GGYVWVTTSGPVFIQVMNMW | 8.136 ± 0.06
31 | GHQILDSCLANCYGGCLIAC | 0.652 ± 0.61
32 | GHRINAYVVVVHLGSSGGGW | 2.07 ± 0.29
33 | GHVWEQGRQLGSAPKDR | 0.1 ± 0.71
34 | GICDLLAHG | 0.322 ± 0.25
35 | GICWLISCGRIVAGSSEQYV | 0.924 ± 0.3
36 | GIETRMDWEV | 1.67 ± 0.52
37 | GIKCTRFWQVPNRGDRV | -0.813 ± 0.48
38 | GILFDLICIDLCFIGVLLKM | -0.406 ± 0.44
39 | GIRCISLRKGHAGW | -1.65 ± 2.4
40 | GIRPEN | -0.521 ± 0.49
41 | GIRQLMAPYKPERWCWQRVG | 0.344 ± 0.51
42 | GISFFGGLQASFLLPLASLL | 0.413 ± 1.1
43 | GISFY | 1.28 ± 0.9
44 | GISSCWLRRFHVAKRARPSG | -1.02 ± 2.7

Row | Substance | amyloid nucleation score
45 | GISWSRGWSAFLKCDRRTGC | 0.894 ± 0.8
46 | GITGSWINFRNCLTR | 0.774 ± 0.6
47 | GIVGSG | 2.29 ± 0.29
48 | GIYCLYFDILEVFLYTTTLS | 0.27 ± 0.42
49 | GKDLDMRRLWFGPAGIWWSK | 0.006 ± 0.59
50 | GKLSCYPCTGCL | -0.109 ± 1.4
51 | GKLTYLPRVKNLHLHFSFEN | -0.169 ± 0.51
52 | GKNDLSMNIGELWASGRGVV | 2.18 ± 0.24
53 | GKNFSTMAWP | -1.25 ± 2.7
54 | GKPWSSCHENSLINMDHSDV | inactive
55 | GKRGSTQDEAKR | inactive
56 | GLAGTLDPLTASDLLSRIGV | 0.182 ± 0.62
57 | GLDIFIWYMMVGIVYAFIYV | 2.38 ± 0.53
58 | GLEGIRIGWSSLVSMCLWRG | -0.016 ± 0.33
59 | GLIRSSVEVMLHGVHRWDPY | 0.037 ± 0.42
60 | GLLSRNLVLRGLNSGNWPFG | inactive
61 | GLMLDLFVSSVYSIT | 0.655 ± 0.42
62 | GLMSLYRQSSSLNRKAGWLT | 0.46 ± 0.64
63 | GLNDYIKVFLYFDSVNRYLD | -0.694 ± 1.1
64 | GLPVGQGGELDY | 2.32 ± 0.14
65 | GLREMRNISAVFCFRLYICL | 1.58 ± 0.14
66 | GLVACQAMSNV | -0.138 ± 0.44

Row | Substance | amyloid nucleation score
67 | GLVGTRICSWIDFRSV | -0.3 ± 1.5
68 | GLVRDTTTMNVSLSVMSSAR | 1.39 ± 0.84
69 | GLVSSSLGGYVDADSYFECD | inactive
70 | GLVTRMSQTHPVSYNHITIL | -0.072 ± 0.28
71 | GLWKGLRHSSSKWERPHIRQ | 1.1 ± 0.62
72 | GLWYHA | 0.025 ± 0.62
73 | GMALKLFCALT | 0.078 ± 0.89
74 | GMLGDVTVYLACRLLISRFL | inactive
75 | GMLNIDSVPDTYGLSQPVVP | -0.498 ± 0.57
76 | GMLRVYWSMSSVFSGMCDRC | 3.94 ± 0.1
77 | GMRLGTRSLQHQRWCAMLYL | -1.37 ± 1.8
78 | GMRVRNRFVVSDSSYPPASH | -0.024 ± 0.26
79 | GMTCSQGSEWMLERGNRTEV | -0.294 ± 0.66
80 | GMYLFECCYMGRRFSSWVGN | 0.055 ± 0.47
81 | GMYRSVCDKVYRGCTIEVVV | 1.55 ± 0.54
82 | GNAVYMNYFNVLDWNWSL | 4.966 ± 0.048
83 | GNCSMSVGATLEGLMVRVHI | 0.027 ± 0.68
84 | GNWYLCTGF | 1.58 ± 0.1
85 | GPDRLMDILAMPGGYSMLSM | 1.03 ± 0.54
